Target: IL2 (R&D, 202-IL) (UniProt P60568 21-153)
Assay: ELISA, scFv on anti-V5
Source text: The scFv DNA sequence for each clone was synthesized as a GBLOCK® (Integrated DNA Technologies, Inc.) with a T7 promoter, a translation initiation site, the coding sequence for the scFv sequence with cMyc and V5 tags, and a T7 terminator sequence. Proteins from each of the GBLOCK® fragments were expressed using a cell-free transcription/translation system (Cosmo Bio USA, Inc., PUREFREX® 2.1, Product #GFK-PF213 with DS Supplement, Prod. #GFK-PF005). […] In these experiments, wells of a 384-well plate were coated with an anti-V5 antibody (Sv5-Pk1, BioRad) at lug/ml overnight at 4 degrees. After washing, wells were blocked with SUPERBLOCK™ (ThermoFisher, 37515) followed by addition of saturating levels of scFvs in SUPERBLOCK™. After washing, antigens were added and plates incubated for one hour. To detect PD1 binding, a biotinylated recombinant PD1 was used (PD1-HisAvi, Acro Biosystems, PD1-H82E4). […] Biotinylated antigens were detected using streptavidin HRP using standard methods. Varying amounts of labelled test antigen were added to show binding and to estimate relative affinities of the different scFvs.

B1: AB000880 (anti-PD1 control) scFv (AF000327) (scFv)
scFv: MSTSTEQKLISEEDLQVQLVQSGAEVKKPGASVKVSCKASGYTFTTYYMHWVRQAPGQGLEWMGIINPSGGGTLYAQKFQGRVTMTRDTSTSTVYMELSSLRSEDTAVYYCAAGLFIWGQGTTVTVSSASGGGGSGGGGSGGGGSHASDIVMTQSPDSLAVSLGERATINCKASQSLLHSSSNKNYLAWYQQKPGQPPKLLIYWASTRESGVPDRFSGSGSGTDFTLTISSLQAEDVAVYYCQQYYSTPITFGPGTKVDIKGSGLNDIFEAQKIEWHEGKPIPNPLLGLDST
notes: also called AB000880_PD1_R04_C10
binding result: no binding

Source: patent US20240366776A1 (Hoffmann-La Roche, published 2024)
